Laboratory results from PMC6391106.
pKd: −log10 of the molar value.

Target: WT murine C3b (mouse) (UniProt P01027)
Assay: SPR; BIAcore S200; murine C3b (WT or Asn1115) amine coupled to a CM5 chip (930 ± 10 RU); analytes in 2-fold dilution series in HBST (10 mM HEPES, 150 mM NaCl, 0.005% Tween-20, pH 7.4), 30 μl/min for 200 s; steady-state model

Chain of full-length mouse serum-derived FH (P06909 19-1234): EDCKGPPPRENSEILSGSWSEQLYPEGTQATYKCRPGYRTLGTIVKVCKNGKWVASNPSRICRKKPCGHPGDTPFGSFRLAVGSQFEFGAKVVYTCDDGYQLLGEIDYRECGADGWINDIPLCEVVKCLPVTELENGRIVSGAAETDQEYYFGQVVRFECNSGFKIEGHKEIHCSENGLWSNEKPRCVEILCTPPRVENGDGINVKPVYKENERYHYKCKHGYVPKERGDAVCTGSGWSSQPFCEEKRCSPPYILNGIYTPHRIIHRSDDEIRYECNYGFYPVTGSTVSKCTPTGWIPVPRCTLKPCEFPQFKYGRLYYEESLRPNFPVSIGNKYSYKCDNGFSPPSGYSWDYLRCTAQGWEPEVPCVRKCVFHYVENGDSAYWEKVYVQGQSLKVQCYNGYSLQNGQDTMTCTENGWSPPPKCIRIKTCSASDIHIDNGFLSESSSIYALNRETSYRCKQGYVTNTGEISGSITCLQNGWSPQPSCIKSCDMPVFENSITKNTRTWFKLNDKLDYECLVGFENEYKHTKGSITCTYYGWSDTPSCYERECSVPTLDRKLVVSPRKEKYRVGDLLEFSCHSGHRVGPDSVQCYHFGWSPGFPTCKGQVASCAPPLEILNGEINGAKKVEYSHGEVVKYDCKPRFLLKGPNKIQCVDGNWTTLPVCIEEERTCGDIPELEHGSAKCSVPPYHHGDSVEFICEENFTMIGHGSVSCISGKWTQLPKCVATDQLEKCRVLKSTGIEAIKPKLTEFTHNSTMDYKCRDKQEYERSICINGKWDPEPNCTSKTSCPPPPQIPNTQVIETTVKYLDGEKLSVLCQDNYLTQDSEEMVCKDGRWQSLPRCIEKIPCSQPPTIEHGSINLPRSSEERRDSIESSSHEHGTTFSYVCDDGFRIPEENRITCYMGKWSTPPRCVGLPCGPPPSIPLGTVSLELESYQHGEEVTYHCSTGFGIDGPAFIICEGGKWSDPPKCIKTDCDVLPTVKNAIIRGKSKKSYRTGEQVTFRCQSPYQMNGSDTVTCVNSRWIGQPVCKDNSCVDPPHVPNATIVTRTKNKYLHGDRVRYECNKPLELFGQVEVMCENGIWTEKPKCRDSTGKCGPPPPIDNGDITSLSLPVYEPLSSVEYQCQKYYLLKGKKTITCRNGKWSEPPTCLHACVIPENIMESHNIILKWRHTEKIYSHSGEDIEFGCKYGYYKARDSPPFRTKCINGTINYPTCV

| pKd | Substance |
| --- | --- |
| 5.85 | full-length mouse serum-derived FH (from UniProt P06909 19-1234) (natural protein) |
| 5.03 | recombinant human FH SCRs 19–20 (domain or fragment) |
| 5.49 | recombinant murine Crry SCRs 1–5 (domain or fragment) |
| 5.54 | recombinant murine FH SCRs 1–5 (domain or fragment) |
